Data as given in the supplement of paper PMC9170038.

system: MS2 coat protein; assay: apparent KD of MS2 coat protein, switch ON state; designed switch direction (-1 OFF switch, 1 ON switch): -1; higher = weaker reporter binding; settings: FMN input: 0 or 200 uM; Eterna round: R93 (includes R88 designs)
Summary of the method: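 With or without constant ligand, designed RNA switches in 100 mM Tris-HCl pH 7.5, 80 mM KCl and 4 mM MgCl2 were titrated with SNAP-549-labelled MS2 coat protein. Concentrations went up in twofold steps from 0.7 or 1.5 nM to 3 µM. The switches had been transcribed on-chip from Illumina sequencing clusters, and apparent KD is the per-design median of normalised cluster binding-curve fits.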

Row | Sequence | apparent KD of MS2 coat protein [nM]
1 | AAGAACAGAGGAUAUACAUGAAAGAAAGAAAAGAAAAGAAAACAUGAGGAUCACCCAUGUAGAAGGCUGAAGAA [EteRNA is fun!] | 28.1
2 | AAAAAACAUGAGGAUCACCCAUGUGAGGAUAUCGGAAAAGGAAAAAAAAAAAAGAAGACGAGAAGGCACAAAGA | 26.6
3 | AAGAAGUCAGGAUAUGCGAAUCGAUAAGAACGUCAAAGAAAGCAGAAGGGACAUGAGGAUCACCCAUGUAAAGA [Opal 39] | 30.7
4 | AAGUUGCUAGGAUAUACUUGGGCAACAAAUAAACUAAUAUAACAUGAGGAUCACCCAUGUAGAAGGAGCAGAAA [JR_Exc002_Sub206] | 31.8
5 | AACAAACAUGAGGAUCACCCAUGUCAGGAUAUGCAAACAACAAACAACAAACAACAAAGCAGAAGGGACAACAA [e1-3] | 19.9
6 | AGUAUGCGAGGAUAUACAUGAGGAUCACCCAUGUGAGAGAUAAAAGUGAGAAAGACAAGUAGAAGGCGCGUACA [JL Lego Mod 23] | 54.8
7 | AAAAAGGGAGGAUAUACAUGAGGAUCACCCAUGUAAAAAAAAAAAGGAGGGAGGGAAGGUAGAAGGCCCAAAAA [Excls3-IIi] | 17.7
8 | AACUAACAUGAGGAUCACCCAUGUCAGGAUAUGCAAAGAACGAUCGAACGAACGAUAAGCAGAAGGGACAAAAA [Amethyst 96] | 29.8
9 | AAGCACAGAGGAUAUACAUGGGUAAAAAAAAAAAAAAAAAAACAUGAGGAUCACCCAUGUAGAAGGCUGUGCAA | 32.6
10 | AAAACACAUGAGGAUCACCCAUGUGAGGAUAUGCGAAAAAAAAAAAAAAAAAAAAAACGCAGAAGGCACAUAAA [jn_teaneck] | 23.6
11 | AGCUAGUGAGGAUAUACGAACAUGUCAAAAGACGUGAAAAAACAUGAGGAUCACCCAUGUAGAAGGCACUAGCA [Mat - Exclusion 2 - JL-Eli mod - D56] | 19.2
12 | ACGAAGAGAGGAUAUACGAACAUGUCAAAAGACGUGAAGGGACAUGAGGAUCACCCAUGUAGAAGGCUCUUCGA [Mat - Exclusion 2 - JL mod - D10] | 45.4
13 | AGUUGGCGAGGAUAUACAUGAGGAUCACCCAUGUAAAAUAAAUAAAAAAUAAAGGGAAGUAGAAGGCGCUGACA [73%, Moding Norbert Elias, 15] | 41.8
14 | AAAAAACAUGAGGAUCACCCAUGUGAGGAUAUGCAAAACCCAUAUAAAAAGGGAAAAAGCAGAAGGCACAAAAA [Starry Exclusion 1.3 (wbt round 1 mod)] | 22.8
15 | AAGCUGCUAGGAUAUACAGCAGGGAUUCGAAAACCCACGAAACAUGAGGAUCACCCAUGUAGAAGGAGUAGGGA [Attixe] | 22.9
16 | GAAAAGUCAGGAUAUACAGAAAAAAAAACGAAAAAAAAUCUGUAGAAGGGACAUGAGGAUCACCCAUGUAAAAG [Mat - Exclusion 4 - Mayanna - D123] | 52.6
17 | AAGACUACAGGAUAUACAUGAGGAUCACCCAUGUAACUGACAAGUAGAGGACGGAGAAGUAGAAGGGUAGUCAA [Ruby 35] | 13.6
18 | AAAAAUGGAGGAUAUACAUGAGGAUCACCCAUGUGAAACAAAACAAAACACAAAAAAAGUAGAAGGCCAAAAAA [Gilly Gone Silly 4 - Jieux - Exclusion 3] | 33.1
19 | GAUUAGUGAGGAUAUACAUGAGGAUCACCCAUGUGUAAAAAAAAACGCAAAAAAGAAUGUAGAAGGCACUAAAG [Mat - Exclusion 3 - Mayanna mod - D103] | 21.6
20 | AAGAGUACAGGAUAUACAUGAAAAGAGUCGAAAGACUCAAAACAUGAGGAUCACCCAUGUAGAAGGGUACUCAA [Hyphema Seclusion Mod 62% 2] | 137
21 | AUAAAGUAAGGAUAUGCGAAUAAAUAAGUAGACGAAUGAAAGCAGAAGGUACAUGAGGAUCACCCAUGUAAGAA [Ex 4 Tesla 2] | 30.3
22 | AAAAAACAUGAGGAUCACCCAUGUGAGGAUAUCUGAAAAAAAAAAAAAAAAAAGAAAAAGAGAAGGCGCAAAGA [Ex 1 #2] | 38
23 | CAUAAGCAAGGAUAUACAUGAGGAUCACCCAUGUAGCUUUGCUUCGUGGGCACAACAUGUAGAAGGUGCGAAAA [Leceedon] | 15

Row | Sequence | apparent KD of MS2 coat protein [nM]
24 | AAAAGGUCAGGAUAUGCCCACCAGGAAAAAAAACCAGGUGGGCAGAAGGGACAUGAGGAUCACCCAUGUAAAAA [Excls4-I] | 59.6
25 | AGCAAGAGAGGAUAUACAUAGGAAAAAAAAGUUAGAUCCCUACAUGAGGAUCACCCAUGUAGAAGGCUCUGGCA [Ex2 Design 153: Sub-opt 17] | 42.2
26 | AGCUAGUCAGGAUAUACGAGAAUGUCAAAAGACGUGAAGGGACAUGAGGAUCACCCAUGUAGAAGGGACUAGCA [Diamond 23] | 39.3
27 | AAGUUACAUGAGGAUCACCCAUGUGAGGAUAUGUGUAUCCCUAAAAAAGUGUGGGACCACAGAAGGUACUUGGA [Mod 2 of Atanri by ViennaUCT, Round 1] | 42.9
28 | AAGAACUCAGGAUAUGCUAAAGAAAUAAAAAUAAAUAAAGAACAUGAGGAUCACCCAUGUAGAAGGGAGAAGAA [Merkawre Sobekhotep VII] | 76.4
29 | CUCUUGUGAGGAUAUGUAAGAAAAGAAAAGAAAGAAAAGAAACAGAAGGCACAUGAGGAUCACCCAUGUAAGAA [EteRNA is fun!] | 31.7
30 | CCUAUGUCAGGAUAUCAGUAGUAAAAAAAAAAAAUUACUACUGAGAAGGGACAUGAGGAUCACCCAUGUCACUU [EX4 311: Super Stable 11] | 28.5
31 | AAAAAGUUAGGAUAUACAUGAGGAUCACCCAUGUACAUAAAUGGAGAAAAAAACAGUAGUAGAAGGGACAAAAA [EX2 Malc#11] | 23.8
32 | AAAAAACAUGAGGAUCACCCAUGUGAGGAUAUGUAAAAUAAAAUAAAAAUAAAGAAAAGCAGAAGGUAUAUGAA [Amethyst 65] | 20.4
33 | AGAAUACAUGAGGAUCACCCAUGUAAGGAUAUGUGAAGAAAAAGAAAAGAAAAGAAACACAGAAGGUACAAAAG [EX 1 May 18] | 30
34 | AGUUGGCGAGGAUAUACAUGAGGAUCACCCAUGUAAAAUAAAUAAAAAAAGGGAGAAAGUAGAAGGCGCUGACA [73%, Moding Norbert Elias, 12] | 56.2
35 | CUCAUGUCAGGAUAUCAGUAGUAAAAAAAAAAAAUUACUACUGAGAAGGGACAUGAGGAUCACCCAUGUCCCUU [EX4 301: Super Stable 1] | 20.4
36 | GAAAAGUGAGGAUAUACAGAUAAAAAAACGAAAAAAAAUCUGUAGAAGGCACAUGAGGAUCACCCAUGUAAAAA [Mat - Exclusion 4 - Mayanna - D106] | 31.7
37 | AACUGACAUGAGGAUCACCCAUGUCAGGAUAUGACUUGAUAGAAAAUAAAAUAUCAUGUCAGAAGGGACAUGAA [Design 61: Sub-opt KB] | 14.3
38 | GGCACUGUAGGAUAUACAUGAACAAUUGGCAUCCUCAGUCCACAUGAGGAUCACCCAUGUAGAAGGAUAGAAAA [Besorees] | 131
39 | AGCUAGUCAGGAUAUACGGACAUGUCAGGAGACGUGAAGGGACAUGAGGAUCACCCAUGUAGAAGGGACUAGCG [74%, Web mod - With 4 more G's] | 35.5
40 | UUAGAACAUGAGGAUCACCCAUGUGAGGAUAUGCAAUACUAAAAUUAAGAUAAUUAUAGCAGAAGGCACGUAGU [JR_EXc001_Sub804] | 33.2
41 | UCCAGACAUGAGGAUCACCCAUGUCAGGAUAUCUACAGAACCUCAUGUAAAAAACUGUAGAGAAGGGAUAUGAA [Design 97: Pseudoknot G] | 16.7
42 | AAUAAUGCAGGAUAUACUAAAGAAAUGAAAAGAAAUAAAGAACAUGAGGAUCACCCAUGUAGAAGGGCAAAUAA [Yakareb] | 52
43 | AAAAAACAUGAGGAUCACCCAUGUGAGGAUAUGCAAAAAAAAAAAAAAAAAAAAAAAAGCAGAAGGCGCAAAAA [4 GC Strong] | 20.6
44 | GGUUGACGAGGAUAUACAUGAGGAUCACCCAUGUGAGAGAAAAAAGUGAGAAAGAAAAGUAGAAGGCGUUGACG [salish99-ex3-59] | 36.9
45 | UCAGGUGGAGGAUAUACAGCUCGAUCCUGGAAUAAAACGGCACAUGAGGAUCACCCAUGUAGAAGGCCACAAAA [Texeussoat] | 18.9
